Here are results for 80 sequences from the supplement of paper PMC10724198.

± gives the standard deviation of the averaged measurements.
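Also: PSI is a weighted mean of sequencing reads over stability bins, variants kept only with over 10 reads, mCherry proximal and sfGFP distal, peptide attached via GGGS linker.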

The subject of this data set is Saccharomyces cerevisiae. The data set can be described thus: protein stability index of tFT-peptide fusion (C-terminal peptide) (PSI (0-1 scale)); higher = more stable (slower turnover). The conditions noted are these: genetic background: wild type; temperature: 30 C.
TVPESGSIGERK showed a protein stability index of 0.672 ± 0.03.

TVPGTARGQRPP gave a protein stability index of 0.629 ± 0.03.

In turn, TVRFTHQRNTVK returned a protein stability index of 0.689 ± 0.037.

The sequence TVRIGKYTGNGV had a protein stability index of 0.738 ± 0.017.

Regarding TVSAPLFFPLNW, the protein stability index is 0.663 ± 0.034.

For TVTSTLKKHKRG, the protein stability index is 0.669 ± 0.034.

TVYTPGVFVKTV yielded a protein stability index of 0.562 ± 0.044.

Sequence TWIGRLGAGLPF yielded a protein stability index of 0.779 ± 0.074.

The sequence TWSLYFSCRLFW registered a protein stability index of 0.54 ± 0.055.

Consider TWVVPSASWLVF, for which the protein stability index is 0.598 ± 0.009.

TYGPSLPVHAVT registered a protein stability index of 0.686 ± 0.012.

Turning to TYPMGVVLVESG, the protein stability index was found to be 0.498 ± 0.011.

In turn, TYQRTHKTATQF displayed a protein stability index of 0.681 ± 0.073.

TYRLPLLAPAPR returned a protein stability index of 0.688 ± 0.0097.

Consider TYSCLKIVIPRT, for which the protein stability index stood at 0.664 ± 0.018.

VAAASPLFSRID had a protein stability index of 0.712 ± 0.014.

Take VADTLVCRGPMA: the protein stability index worked out at 0.718 ± 0.023.

For the sequence VALEWGAVRVEG, the protein stability index turned out to be 0.569 ± 0.088.

For VALPVGQKLRTR, the protein stability index was found to be 0.633 ± 0.029.

Consider VAPLTPPPSLPF, for which the protein stability index worked out at 0.671 ± 0.014.

For VAQKARSVRFSI, the protein stability index was 0.722 ± 0.1.

As to VARPSGQRVRHA, the protein stability index was 0.656 ± 0.085.

VARVVGGVGGGW showed a protein stability index of 0.6553 ± 0.006.

Take VASGLVLFSGGV: the protein stability index was 0.655 ± 0.0076.

In turn, VASGTLGWWVSA came in with a protein stability index of 0.712 ± 0.018.

VAVGAGAGAMGL had a protein stability index of 0.656 ± 0.0094.

In turn, VAYAGIRHDIPQ returned a protein stability index of 0.68 ± 0.081.

The sequence VCCMFTAFGVCG returned a protein stability index of 0.604 ± 0.022.

The sequence VCGGRQVGWGGW yielded a protein stability index of 0.684 ± 0.045.

For VCGLTLSVCTFG, the protein stability index is 0.567 ± 0.0068.

As for VCKGGRIEYGLQ, the protein stability index is 0.666 ± 0.037.

For VCLCFWSVGSWG, the protein stability index was 0.543 ± 0.011.

VCLCGGLGWVLF had a protein stability index of 0.634 ± 0.029.

Sequence VCVACLRYPTFS registered a protein stability index of 0.6767 ± 0.0031.

The sequence VCWFMWSSVYGE showed a protein stability index of 0.527 ± 0.051.

Regarding VDCEECSFQFQM, the protein stability index is 0.586 ± 0.15.

For VDCGPLSIEGGR, the protein stability index came out at 0.649 ± 0.018.

Consider VDLLGWVSESRC, for which the protein stability index worked out at 0.743 ± 0.089.

On to VDREGFTVLGRV, for which the protein stability index amounted to 0.657 ± 0.021.

For VDSLETDVLKYL, the protein stability index came out at 0.665 ± 0.011.

On to VDSLFGSRVLRL, for which the protein stability index was 0.727 ± 0.097.

Sequence VEDGQGEYRRWV yielded a protein stability index of 0.606 ± 0.049.

The sequence VEGINSQERLGV yielded a protein stability index of 0.724 ± 0.07.

The sequence VEHHSKQIEKGR showed a protein stability index of 0.681 ± 0.053.

For VELCLREKQIQL, the protein stability index amounted to 0.6749 ± 0.0039.

Take VELFSYGHHCRV: the protein stability index came out at 0.658 ± 0.011.

Consider VELSVVHMGHTA, for which the protein stability index came out at 0.722 ± 0.0073.

VESRVVGGCGDW yielded a protein stability index of 0.625 ± 0.03.

Sequence VEVGAWMVGCSE showed a protein stability index of 0.6113 ± 0.0012.

Regarding VEWCARGRVRRA, the protein stability index was determined as 0.757 ± 0.045.

VEWLQLERDPLV registered a protein stability index of 0.741 ± 0.033.

In turn, VEYGRLPRGEEG showed a protein stability index of 0.645 ± 0.13.

Turning to VFADHPSMHILS, the protein stability index stood at 0.72 ± 0.021.

VFAGGCRLYCFR returned a protein stability index of 0.624 ± 0.063.

Sequence VFALSSVAIRRS registered a protein stability index of 0.64 ± 0.032.

In turn, VFAWFSGGARLT had a protein stability index of 0.717 ± 0.0076.

Take VFCFGVRSVFLR: the protein stability index turned out to be 0.54 ± 0.053.

In turn, VFCLGTRSWGLF registered a protein stability index of 0.6997 ± 0.0042.

The sequence VFFCALCRLWLG displayed a protein stability index of 0.5 ± 0.029.

In turn, VFGGSLICVFRV yielded a protein stability index of 0.567 ± 0.025.

Consider VFLASFLVCPIS, for which the protein stability index was found to be 0.662 ± 0.057.

On to VFLSLLYWSPIG, for which the protein stability index was found to be 0.643 ± 0.038.

For the sequence VFLTLDVFPSSP, the protein stability index turned out to be 0.647 ± 0.17.

Regarding VFPPPLPVRRCP, the protein stability index was determined as 0.6551 ± 0.0031.

Turning to VFPRVFGFGVCI, the protein stability index was determined as 0.716 ± 0.054.

The sequence VFQRFLLFTISP came in with a protein stability index of 0.61 ± 0.014.

As for VFRSGGNQDIKV, the protein stability index came out at 0.648 ± 0.015.

In the case of VFSAVIFFDCVQ, the protein stability index amounted to 0.629 ± 0.014.

With VFSGGTVRWVGG, the protein stability index is 0.702 ± 0.023.

In turn, VFWVFDGFEGFI had a protein stability index of 0.825 ± 0.022.

The sequence VGAGGAWSGCGP registered a protein stability index of 0.675 ± 0.046.

VGAVRVAVGVGG yielded a protein stability index of 0.566 ± 0.0096.

With VGAWGCGMWVVG, the protein stability index amounted to 0.645 ± 0.024.

Turning to VGCWATGVGGPS, the protein stability index came out at 0.706 ± 0.038.

The sequence VGDGLGGGGQGG registered a protein stability index of 0.664 ± 0.056.

On to VGDGQVWGGQGG, for which the protein stability index is 0.669 ± 0.063.

In the case of VGEGLGWGGQGG, the protein stability index was 0.712 ± 0.062.

As for VGERVSRRIQTR, the protein stability index stood at 0.699 ± 0.052.

The sequence VGESGEGVVMGE registered a protein stability index of 0.677 ± 0.08.

In turn, VGFVYLTSAQVW registered a protein stability index of 0.527 ± 0.012.
